This is an account of results in PMC3375223, “Caspase Inhibitors of the P35 Family Are More Active When Purified from Yeast than Bacteria” (PLoS ONE, 2012).

“And” between values parts separate entries of the source, which are not always exact repeats. Identical values can stand only once.

Data set [1] concerns the molecule itself. The data set is described as follows: SEC; Superdex S200 on an ÄKTA purifier, 0.6 ml/min, 20 mM Tris pH 7.4, 50 mM NaCl; sizes by elution against BioRad gel filtration standard. (In general: Size exclusion chromatography separates by hydrodynamic size, large species first.)
Data set [2] deals with the molecule itself. In words: cross-linking; purified FLAG-tagged MaviP35 incubated in 5 µM BMH for 30 min at room temperature, boiled in loading dye with 5% β-mercaptoethanol, SDS-PAGE and anti-FLAG immunoblot; oligomer sizes by migration against markers. For orientation: A western blot detects proteins with antibodies after separation by electrophoresis.
Data set [3] deals with the molecule itself. In words: AUC; sedimentation velocity of gel filtration fractions (yeast 111–215 kDa, bacterial 89–138 kDa), 20°C, PBS, 40,000 rpm, 230 nm; 0.28 and 0.56 µM bacterial fractions, 1.95, 2.23 and 1.39 µM yeast fractions; c(s) and c(M) fits in SEDFIT.
The target of the next data set is caspase 3 (human) (UniProt P42574). The data set is described as follows: inhibition of caspase activity on a fluorogenic peptide, inhibition constants by a competitive model; graded concentrations of P35 protein, 30 nM caspase 3, 100 µM Ac-DEVD-AFC; constants of the yeast-purified proteins taken from ref. 22.

The term stoichiometry N denotes the number of molecules, sites or subunits per partner or assembly.

Sequence of caspase 3 (human) (P42574 whole entry): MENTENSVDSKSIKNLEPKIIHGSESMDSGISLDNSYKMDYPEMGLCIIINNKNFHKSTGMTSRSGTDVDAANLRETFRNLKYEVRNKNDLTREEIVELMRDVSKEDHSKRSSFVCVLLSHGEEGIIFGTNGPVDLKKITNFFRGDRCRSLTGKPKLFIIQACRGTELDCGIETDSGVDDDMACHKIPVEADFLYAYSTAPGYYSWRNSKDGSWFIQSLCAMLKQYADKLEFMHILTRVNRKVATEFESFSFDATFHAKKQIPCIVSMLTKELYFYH

B1: MaviP35-FLAG purified from Escherichia coli (natural protein)
chain: CVIFPVEIDVSQTVIKDCQVNKQTRELVYINKIMNIELTKPVLMMFNISGPIKSVTRKNNNLRDEIKSEIDKQFDQLERDHSTQFDGGHCIKYFKDEHYSISCQSGNVLKSKFEKILKSHGYTDEKSIEAYKKYCLPKLVDEQNNYYVAVCVLKPGFEKGSNQVLSFEYNPIGNKVIVPFAHEINDTGLYEYDAAAYVDNVKFDGEQQFEKFVQSLTLPSAYDDEEVLYYNETSENKRMMYKALEFKTKSCWGKFEWDYWKIFCNGFIYDEKLKVLYVKLHNVTSRVNNNIILNID
modifications: N-acetylated amino terminus on 24% of the protein
notes: MaviP35, the P35 orthologue of Maruca vitrata MNPV; full length protein lacking the initiating methionine (by mass spectrometry); expressed from pET23a-MaviP35-FLAG; Same coding region as m2 (excised from pGALL-(HIS3)-MaviP35-FLAG); the host differs; also called bacterially purified MaviP35; bacterially-produced MaviP35; source: E. coli BL21-(DE3)-pLysS, purified (Anti-FLAG M2-agarose, FLAG …)
With B1, the “stoichiometry N” value in data set [1] worked out at 3; in data set [2], 10.

B2: MaviP35-FLAG purified from Saccharomyces cerevisiae (natural protein)
chain: B1 chain
modifications: N-acetylated amino terminus on 12% of the protein
notes: MaviP35, the P35 orthologue of Maruca vitrata MNPV; full length protein lacking the initiating methionine (by mass spectrometry); expressed from pGALL-(HIS3)-MaviP35-FLAG; also called yeast-purified MaviP35; yeast-isolated MaviP35; source: gel filtration for some experiments; not shown: FLAG, C-terminal, kept
For the molecule B2, the “stoichiometry N” value in data set [3] was 4 and 6 and 8; in data set [1], 2 and 5.

B3: AcP35-FLAG purified from Saccharomyces cerevisiae (natural protein)
chain: CVIFPVEIDVSQTIIRDCQVDKQTRELVYINKIMNTQLTKPVLMMFNISGPIRSVTRKNNNLRDRIKSKVDEQFDQLERDYSDQMDGFHDSIKYFKDEHYSVSCQNGSVLKSKFAKILKSHDYTDKKSIEAYEKYCLPKLVDERNDYYVAVCVLKPGFENGSNQVLSFEYNPIGNKVIVPFAHEINDTGLYEYDVVAYVDSVQFDGEQFEEFVQSLILPSSFKNSEKVLYYNEASKNKSMIYKALEFTTESSWGKSEKYNWKIFCNGFIYDKKSKVLYVKLHNVTSALNKNVILNTIK
modifications: N-acetylated amino terminus on 13% of the protein
For B3, the fold more efficient in caspase 3 inhibition (inhibition constants, Figure 1B) than bacterially-purified AcP35 in the data set with caspase 3 (human) was 6 fold.
